Test system: MEFs
Test: Stimulation of serum-starved MEFs with growth factors or serum (Ezh2, Ndy1, miR-101 levels)
Type: cell-based, mouse
Conditions: serum-starved MEFs, 24 hours after stimulation
Method: MEFs were transfected with control siRNA and stimulated with serum (10%) for 1, 4, 12 and 18 hours. (upper) Nuclear extracts were probed with antibody specific for Ezh2 and for CREB, levels of which served as loading control. (lower) Ndy1 and Ezh2 mRNA levels were measured with real time RT-PCR; GAPDH mRNA levels were used as internal control. Data are expressed as mean±SD.
Serum starved MEFs were stimulated with each of FGF-2 (20 ng/ml), IGF-1 (20 ng/ml), PDGF (20 ng/ml), serum (10%), VEGF (20 ng/ml), EGF (20 ng/ml) or TNFα (50 ng/ml). Nuclear extracts were probed with antibody specific for Ezh2 and for CREB, levels of which served as loading control.
Data are expressed as mean±SD.
MEFs transfected with control siRNA were stimulated with FGF-2 for 1, 4, 12 or 18 hours. (upper) Nuclear extracts were probed with antibody specific for Ezh2. CREB levels served as loading control. (middle) Ndy1 and Ezh2 mRNA were measured with real time RT-PCR; GAPDH mRNA levels were used as internal control. Data are expressed as mean±SD. (lower) miR-101 levels were measured with real time RT-PCR; U6 small nuclear RNA levels were used as internal control. Data are expressed as mean±SD. […]

B1: EGF: growth factor, R&D systems (protein, UniProt P01133 23-1207, looked up)
Pro-epidermal growth factor: PQHWSCPEGTLAGNGNSTCVGPAPFLIFSHGNSIFRIDTEGTNYEQLVVDAGVSVIMDFHYNEKRIYWVDLERQLLQRVFLNGSRQERVCNIEKNVSGMAINWINEEVIWSNQQEGIITVTDMKGNNSHILLSALKYPANVAVDPVERFIFWSSEVAGSLYRADLDGVGVKALLETSEKITAVSLDVLDKRLFWIQYNREGSNSLICSCDYDGGSVHISKHPTQHNLFAMSLFGDRIFYSTWKMKTIWIANKHTGKDMVRINLHSSFVPLGELKVVHPLAQPKAEDDTWEPEQKLCKLRKGNCSSTVCGQDLQSHLCMCAEGYALSRDRKYCEDVNECAFWNHGCTLGCKNTPGSYYCTCPVGFVLLPDGKRCHQLVSCPRNVSECSHDCVLTSEGPLCFCPEGSVLERDGKTCSGCSSPDNGGCSQLCVPLSPVSWECDCFPGYDLQLDEKSCAASGPQPFLLFANSQDIRHMHFDGTDYGTLLSQQMGMVYALDHDPVENKIYFAHTALKWIERANMDGSQRERLIEEGVDVPEGLAVDWIGRRFYWTDRGKSLIGRSDLNGKRSKIITKENISQPRGIAVHPMAKRLFWTDTGINPRIESSSLQGLGRLVIASSDLIWPSGITIDFLTDKLYWCDAKQSVIEMANLDGSKRRRLTQNDVGHPFAVAVFEDYVWFSDWAMPSVMRVNKRTGKDRVRLQGSMLKPSSLVVVHPLAKPGADPCLYQNGGCEHICKKRLGTAWCSCREGFMKASDGKTCLALDGHQLLAGGEVDLKNQVTPLDILSKTRVSEDNITESQHMLVAEIMVSDQDDCAPVGCSMYARCISEGEDATCQCLKGFAGDGKLCSDIDECEMGVPVCPPASSKCINTEGGYVCRCSEGYQGDGIHCLDIDECQLGEHSCGENASCTNTEGGYTCMCAGRLSEPGLICPDSTPPPHLREDDHHYSVRNSDSECPLSHDGYCLHDGVCMYIEALDKYACNCVVGYIGERCQYRDLKWWELRHAGHGQQQKVIVVAVCVVVLVMLLLLSLWGAHYYRTQKLLSKNPKNPYEESSRDVRSRRPADTEDGMSSCPQPWFVVIKEHQDLKNGGQPVAGEDGQAADGSMQPTSWRQEPQLCGMGTEQGCWIPVSSDKGSCPQVMERSFHMPSYGTQTLEGGVEKPHSLLSANPLWQQRALDPPHQMELTQ
modifications: Pro-epidermal growth factor
notes: growth factor, R&D systems
  level at which Ezh2 expression is induced: at both the RNA and protein levels
20 ng/ml (serum 10%)
  Ezh2 expression: significantly upregulated
